Biological target: HLA-A*02:01 (Homo sapiens, UniProt P04439, D140Y/D185E/D98H/E176V/E277Q/G131W/G231S/I119V/I121R/I166T/I218V/L300P/L318F/N151K/N90K/P208A/P217A/Q86G/Q94H/R138H/R169H/T345S)
Assay: MHC binding assay (UV-ligand exchange, beta2m ELISA)
Details: binding of HLA-class I restricted peptides to HLA-A*02:01, β2m ELISA
Text: Candidate peptides for T cell based therapies according to the present invention were further tested for their MHC binding capacity (affinity). The individual peptide-MHC complexes were produced by UV-ligand exchange, where a UV-sensitive peptide is cleaved upon UV-irradiation, and exchanged with the peptide of interest as analyzed. Only peptide candidates that can effectively bind and stabilize the peptide-receptive MHC molecules prevent dissociation of the MHC complexes. To determine the yield of the exchange reaction, an ELISA was performed based on the detection of the light chain (β2m) of stabilized MHC complexes. The assay was performed as generally described in Rodenko et al. (Rodenko et al., 2006).
96 well MAXISorp plates (NUNC) were coated over night with 2 ug/ml streptavidin in PBS at room temperature, washed 4× and blocked for 1 h at 37° C. in 2% BSA containing blocking buffer. Refolded HLA-A*02:01/MLA-001 monomers served as standards, covering the range of 15-500 ng/ml. Peptide-MHC monomers of the UV-exchange reaction were diluted 100 fold in blocking buffer. Samples were incubated for 1 h at 37° C., washed four times, incubated with 2 ug/ml HRP conjugated anti-β2m for 1 h at 37° C., washed again and detected with TMB solution that is stopped with […]. Absorption was measured at 450 nm. Candidate peptides that show a high exchange yield (preferably higher than 50%, most preferred higher than 75%) are generally preferred for a generation and production of antibodies or fragments thereof, and/or T cell receptors or fragments thereof, as they show sufficient avidity to the MHC molecules and prevent dissociation of the MHC complexes.

| Substance | Peptide Exchange (MHC class I binding score, peptide exchange yield) |
| --- | --- |
| 75 (GLSIFAQDLRL; listed as Homo sapiens) [compound 75] | “++” (≥20% = ++) |
| 76 (GLLRIIPYL; listed as Homo sapiens) [compound 76] | “+++” (≥50 = +++) |
| 78 (GLPSFLTEV; listed as Homo sapiens) [compound 78] | “+++” (≥50 = +++) |
| 79 (GLQAKIQEA; listed as Homo sapiens) [compound 79] | “+++” (≥50 = +++) |
| 80 (VLIEDELEEL; listed as Homo sapiens) [compound 80] | “++” (≥20% = ++) |
| 82 (GLQSGVDIGV; listed as Homo sapiens) [compound 82] | “+++” (≥50 = +++) |
| 83 (GQGEVLVYV; listed as Homo sapiens) [compound 83] | “+++” (≥50 = +++) |
| 84 (GVMDVNTAL; listed as Homo sapiens) [compound 84] | “++” (≥20% = ++) |
| 85 (HLMLHTAAL; listed as Homo sapiens) [compound 85] | “++++” (≥75% = ++++) |
| 87 (HQIEAVDGEEL; listed as Homo sapiens) [compound 87] | “++” (≥20% = ++) |
| 88 (ILDEIGADVQA; listed as Homo sapiens) [compound 88] | “+++” (≥50 = +++) |
| 89 (ILDFGTFQL; listed as Homo sapiens) [compound 89] | “+++” (≥50 = +++) |
| 90 (VIADLGLIRV; listed as Homo sapiens) [compound 90] | “+++” (≥50 = +++) |
| 91 (ILDLNTYNV; listed as Homo sapiens) [compound 91] | “+++” (≥50 = +++) |
| 92 (ILEPLNPLL; listed as Homo sapiens) [compound 92] | “+++” (≥50 = +++) |
| 93 (ILFNTQINI; listed as Homo sapiens) [compound 93] | “+++” (≥50 = +++) |
| 94 (ILFPLRFTL; listed as Homo sapiens) [compound 94] | “+++” (≥50 = +++) |
| 95 (ILGYMAHEHKV; listed as Homo sapiens) [compound 95] | “++” (≥20% = ++) |
| 97 (LLFATQITL; listed as Homo sapiens) [compound 97] | “++” (≥20% = ++) |

| Substance | Peptide Exchange (MHC class I binding score, peptide exchange yield) |
| --- | --- |
| 98 (SLIKYFLFV; listed as Homo sapiens) [compound 98] | “+” (≥10% = +) |
| 99 (ILIFHSVAL; listed as Homo sapiens) [compound 99] | “+++” (≥50 = +++) |
| 103 (KLGGTPAPA; listed as Homo sapiens) [compound 103] | “++” (≥20% = ++) |
| 104 (KLILLDTPLFL; listed as Homo sapiens) [compound 104] | “+++” (≥50 = +++) |
| 105 (KLMNDIADI; listed as Homo sapiens) [compound 105] | “++” (≥20% = ++) |
| 106 (FMASHLDYL; listed as Homo sapiens) [compound 106] | “+++” (≥50 = +++) |
| 107 (ILYNLYDLL; listed as Homo sapiens) [compound 107] | “+++” (≥50 = +++) |
| 108 (VIYTLIHYI; listed as Homo sapiens) [compound 108] | “+++” (≥50 = +++) |
| 109 (KLWEGLTELV; listed as Homo sapiens) [compound 109] | “+++” (≥50 = +++) |
| 110 (LLFDHLEPMEL; listed as Homo sapiens) [compound 110] | “+++” (≥50 = +++) |
| 111 (KLWNVAAPLYL; listed as Homo sapiens) [compound 111] | “+++” (≥50 = +++) |
| 113 (KVPAEEVLVAV; listed as Homo sapiens) [compound 113] | “+++” (≥50 = +++) |
| 115 (LLFDKLYLL; listed as Homo sapiens) [compound 115] | “+++” (≥50 = +++) |
| 116 (LLIGATMQV; listed as Homo sapiens) [compound 116] | “+++” (≥50 = +++) |
| 117 (LLILENILL; listed as Homo sapiens) [compound 117] | “+++” (≥50 = +++) |
| 118 (RLLILENILL; listed as Homo sapiens) [compound 118] | “+++” (≥50 = +++) |
| 119 (VLPAEFFEV; listed as Homo sapiens) [compound 119] | “+++” (≥50 = +++) |
| 120 (AIDAALTSV; listed as Homo sapiens) [compound 120] | “+++” (≥50 = +++) |
| 121 (RLYEITIEV; listed as Homo sapiens) [compound 121] | “++++” (≥75% = ++++) |

Next, values leading:

| Peptide Exchange (MHC class I binding score, peptide exchange yield) | Substance |
| --- | --- |
| “+++” (≥50 = +++) | 122 (LLIPVVPGV; listed as Homo sapiens) [compound 122] |
| “++” (≥20% = ++) | 123 (LLLAEAELLTL; listed as Homo sapiens) [compound 123] |
| “+++” (≥50 = +++) | 124 (LLLEETEKQAV; listed as Homo sapiens) [compound 124] |
| “+++” (≥50 = +++) | 125 (LLLEIGEVGKLFV; listed as Homo sapiens) [compound 125] |
| “+++” (≥50 = +++) | 126 (LLPEGGITAI; listed as Homo sapiens) [compound 126] |
| “+++” (≥50 = +++) | 127 (LLPTAPTTV; listed as Homo sapiens) [compound 127] |
| “+++” (≥50 = +++) | 128 (LLSEEEYHL; listed as Homo sapiens) [compound 128] |
| “+” (≥10% = +) | 130 (LLVLIPVYL; listed as Homo sapiens) [compound 130] |
| “+” (≥10% = +) | 131 (LQALEVLKI; listed as Homo sapiens) [compound 131] |
| “+++” (≥50 = +++) | 132 (LVYEAIIMV; listed as Homo sapiens) [compound 132] |
| “+++” (≥50 = +++) | 133 (YLLSGDISEA; listed as Homo sapiens) [compound 133] |
| “++++” (≥75% = ++++) | 134 (MLLEHGITLV; listed as Homo sapiens) [compound 134] |
| “+” (≥10% = +) | 135 (MTAGFSTIAGSV; listed as Homo sapiens) [compound 135] |
| “++” (≥20% = ++) | 136 (NLDKLWTLV; listed as Homo sapiens) [compound 136] |
| “+++” (≥50 = +++) | 137 (NLIKTVIKL; listed as Homo sapiens) [compound 137] |
| “+++” (≥50 = +++) | 138 (NLLDIDAPVTV; listed as Homo sapiens) [compound 138] |
| “+++” (≥50 = +++) | 139 (NLTDVVEKL; listed as Homo sapiens) [compound 139] |
| “+++” (≥50 = +++) | 140 (QIAELPATSV; listed as Homo sapiens) [compound 140] |
| “++” (≥20% = ++) | 141 (QILSEIVEA; listed as Homo sapiens) [compound 141] |
| “++” (≥20% = ++) | 142 (QLDEPAPQV; listed as Homo sapiens) [compound 142] |
| “+++” (≥50 = +++) | 143 (QLLDTYFTL; listed as Homo sapiens) [compound 143] |
| “+++” (≥50 = +++) | 145 (SALDTITTV; listed as Homo sapiens) [compound 145] |
| “+++” (≥50 = +++) | 146 (SIIEGPIIKL; listed as Homo sapiens) [compound 146] |

From patent publication US10064928B2, “Peptides and combination of peptides for use in immunotherapy against CLL and other cancers” (IMMATICS BIOTECHNOLOGIES GMBH, priority 2015, dated 2018)
